{"source": "patent US20220348894", "about": "“DNA MODIFYING ENZYMES AND ACTIVE FRAGMENTS AND VARIANTS THEREOF AND METHODS OF USE” (LifeEDIT Therapeutics, Inc., published 2022)", "binders": {"B1": {"name": "SGN000186 sgRNA (Table 2) ; SGN000186 target (Table 2) (ssRNA ; dsDNA)", "RNA": "GGACAGUGCGCAUCUCCCUGGUCAUAGUUCCAUUAAAGCCAAAAGUGGCUUUGAUGUUUCUAUGAUAAGGGUUUCGACCCGUGGCGUCGGGGAUCGCCUGCCCAUUGAAAUGGGCUUCUCCCCAUUUAUU", "DNA 1": "GGACAGTGCGCATCTCCCTG", "DNA 2": "CAGGGAGATGCGCACTGTCC"}}, "assay_in_all_cases": "cell_activity; A16>G editing, HEK293FT", "settings_in_all_cases": "tags: SV40 NLS, 3xFLAG, nucleoplasmin NLS", "key": {"APG03724-nAPG07433.1": {"biological_target": "APG03724-nAPG07433.1 (synthetic)", "description": "(§1) 500 ng of plasmid comprising an expression cassette comprising a coding sequence for a fusion protein for each deaminase described in Table 1 and 500 ng of plasmid comprising an expression cassette encoding an sgRNA shown in Table 2 were co-transfected into HEK293FT cells at 75-90% confluency in 24-well plates using Lipofectamine 2000 reagent (Life Technologies). Cells were then incubated at 37° C. for 72 h. Following incubation, genomic DNA was then extracted using NucleoSpin 96 Tissue (Macherey-Nagel) following the manufacturer's protocol. The genomic region flanking the targeted genomic site was PCR amplified using the primers in Table 2 and products were purified using ZR-96 DNA Clean and Concentrator (Zymo Research) following the manufacturer's protocol. The purified PCR products underwent Next Generation Sequencing on Illumina MiSeq. Typically, 100,000 of 250 bp paired-end reads (2×100,000 reads) are generated per amplicon. The reads were analyzed using CRISPResso (Pinello, et al. 2016 Nature Biotech, 34:695-697) to calculate the rates of editing. Output alignments were analyzed for INDEL formation or introduction of specific adenine mutations. Tables 3 through 7 show adenine base editing for each fusion protein comprising nAPG07433.1 and a deaminase from Table 1 and a guide RNA from Table 2. The deaminase component of each fusion protein is indicated. The editing rate for adenines within or proximal to the target sequence is indicated. “A5” indicates, for example, an adenine at position 5 of the target sequence. The position of each nucleotide in the target sequence was determined by numbering the first nucleotide in the target sequence closest to the PAM as position 1, and the position number increases in the […] away from the PAM sequence. The tables also show which nucleotide the adenine was changed to, and at what rate."}, "APG08449-nAPG07433.1": {"biological_target": "APG08449-nAPG07433.1 (synthetic)", "description": "as §1"}, "APG09949-nAPG07433.1": {"biological_target": "APG09949-nAPG07433.1 (synthetic)", "sequence (chain, as listed by the source)": "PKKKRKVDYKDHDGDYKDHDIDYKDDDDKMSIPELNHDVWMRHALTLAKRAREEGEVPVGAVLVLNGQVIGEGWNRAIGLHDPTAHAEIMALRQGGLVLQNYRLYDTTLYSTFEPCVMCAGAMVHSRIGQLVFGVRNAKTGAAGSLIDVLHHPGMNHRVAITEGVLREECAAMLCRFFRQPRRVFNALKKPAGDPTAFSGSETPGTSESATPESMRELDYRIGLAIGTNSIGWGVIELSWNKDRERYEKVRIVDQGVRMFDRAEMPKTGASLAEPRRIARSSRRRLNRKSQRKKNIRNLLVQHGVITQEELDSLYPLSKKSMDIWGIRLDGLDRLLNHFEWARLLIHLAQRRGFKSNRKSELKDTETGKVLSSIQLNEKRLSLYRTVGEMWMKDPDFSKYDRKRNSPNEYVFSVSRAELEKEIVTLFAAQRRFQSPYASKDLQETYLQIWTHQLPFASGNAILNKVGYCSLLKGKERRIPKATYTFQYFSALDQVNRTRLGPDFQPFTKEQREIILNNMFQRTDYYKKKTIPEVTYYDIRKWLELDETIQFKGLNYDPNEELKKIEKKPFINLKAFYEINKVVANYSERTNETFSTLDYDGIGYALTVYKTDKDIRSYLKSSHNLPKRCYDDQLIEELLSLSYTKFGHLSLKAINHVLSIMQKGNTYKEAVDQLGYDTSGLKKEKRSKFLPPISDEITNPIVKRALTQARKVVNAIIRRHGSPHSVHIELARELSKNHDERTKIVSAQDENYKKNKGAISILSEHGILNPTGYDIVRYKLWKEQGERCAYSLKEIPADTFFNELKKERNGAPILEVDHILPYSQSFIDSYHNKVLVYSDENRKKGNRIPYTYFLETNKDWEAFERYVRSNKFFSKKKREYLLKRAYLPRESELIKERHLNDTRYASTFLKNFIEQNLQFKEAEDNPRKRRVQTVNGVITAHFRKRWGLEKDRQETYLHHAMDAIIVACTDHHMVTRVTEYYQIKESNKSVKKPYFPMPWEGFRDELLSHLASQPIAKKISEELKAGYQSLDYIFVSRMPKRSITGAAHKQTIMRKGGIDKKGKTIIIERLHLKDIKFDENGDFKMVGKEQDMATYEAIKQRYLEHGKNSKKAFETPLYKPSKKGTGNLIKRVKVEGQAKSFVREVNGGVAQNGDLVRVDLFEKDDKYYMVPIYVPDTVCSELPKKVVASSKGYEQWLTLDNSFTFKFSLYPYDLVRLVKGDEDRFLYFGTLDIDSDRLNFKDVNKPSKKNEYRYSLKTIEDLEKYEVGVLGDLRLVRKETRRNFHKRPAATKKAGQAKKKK", "description": "as §1"}, "APG06333-nAPG07433.1": {"biological_target": "APG06333-nAPG07433.1 (synthetic)", "description": "as §1"}, "APG09102-nAPG07433.1": {"biological_target": "APG09102-nAPG07433.1 (synthetic)", "description": "as §1"}, "APG05723-nAPG07433.1": {"biological_target": "APG05723-nAPG07433.1 (synthetic)", "description": "as §1"}, "APG08196-nAPG07433.1": {"biological_target": "APG08196-nAPG07433.1 (synthetic)", "description": "as §1"}, "APG05174-nAPG07433.1": {"biological_target": "APG05174-nAPG07433.1 (synthetic)", "sequence (chain, as listed by the source)": "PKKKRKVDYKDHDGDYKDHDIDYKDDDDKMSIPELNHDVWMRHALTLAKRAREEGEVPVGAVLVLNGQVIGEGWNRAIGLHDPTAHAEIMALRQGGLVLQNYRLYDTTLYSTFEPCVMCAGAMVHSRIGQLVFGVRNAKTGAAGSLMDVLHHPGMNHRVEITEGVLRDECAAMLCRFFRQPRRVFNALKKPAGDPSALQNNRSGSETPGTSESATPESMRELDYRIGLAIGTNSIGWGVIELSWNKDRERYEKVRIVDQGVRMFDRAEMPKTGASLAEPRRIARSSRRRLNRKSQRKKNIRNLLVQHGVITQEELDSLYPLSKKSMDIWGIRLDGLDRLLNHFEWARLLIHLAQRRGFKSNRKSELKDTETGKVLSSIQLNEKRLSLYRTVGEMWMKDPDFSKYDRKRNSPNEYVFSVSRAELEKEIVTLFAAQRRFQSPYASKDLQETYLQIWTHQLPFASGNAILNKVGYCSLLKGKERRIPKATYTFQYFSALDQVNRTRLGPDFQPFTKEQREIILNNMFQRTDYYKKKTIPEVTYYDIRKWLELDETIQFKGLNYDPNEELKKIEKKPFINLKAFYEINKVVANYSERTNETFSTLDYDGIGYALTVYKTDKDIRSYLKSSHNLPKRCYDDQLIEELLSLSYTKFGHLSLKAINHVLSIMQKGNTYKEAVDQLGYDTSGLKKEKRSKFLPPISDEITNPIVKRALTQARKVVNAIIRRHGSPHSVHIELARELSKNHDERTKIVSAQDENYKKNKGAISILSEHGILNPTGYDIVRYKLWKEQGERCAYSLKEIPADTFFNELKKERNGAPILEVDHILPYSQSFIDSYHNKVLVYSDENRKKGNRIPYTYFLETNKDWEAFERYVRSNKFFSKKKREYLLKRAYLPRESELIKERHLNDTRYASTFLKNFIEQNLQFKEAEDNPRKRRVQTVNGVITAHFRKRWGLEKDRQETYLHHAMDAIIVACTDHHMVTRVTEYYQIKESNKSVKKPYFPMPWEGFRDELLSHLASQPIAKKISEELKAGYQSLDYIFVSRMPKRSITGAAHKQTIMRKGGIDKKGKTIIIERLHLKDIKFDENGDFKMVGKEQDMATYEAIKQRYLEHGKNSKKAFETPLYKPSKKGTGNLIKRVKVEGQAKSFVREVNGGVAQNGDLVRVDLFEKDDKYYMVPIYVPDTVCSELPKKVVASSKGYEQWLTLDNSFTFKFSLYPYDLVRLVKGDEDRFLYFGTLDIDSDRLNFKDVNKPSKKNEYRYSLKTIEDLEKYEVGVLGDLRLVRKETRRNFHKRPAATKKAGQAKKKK", "description": "as §1"}, "APG06489-nAPG07433.1": {"biological_target": "APG06489-nAPG07433.1 (synthetic)", "sequence (chain, as listed by the source)": "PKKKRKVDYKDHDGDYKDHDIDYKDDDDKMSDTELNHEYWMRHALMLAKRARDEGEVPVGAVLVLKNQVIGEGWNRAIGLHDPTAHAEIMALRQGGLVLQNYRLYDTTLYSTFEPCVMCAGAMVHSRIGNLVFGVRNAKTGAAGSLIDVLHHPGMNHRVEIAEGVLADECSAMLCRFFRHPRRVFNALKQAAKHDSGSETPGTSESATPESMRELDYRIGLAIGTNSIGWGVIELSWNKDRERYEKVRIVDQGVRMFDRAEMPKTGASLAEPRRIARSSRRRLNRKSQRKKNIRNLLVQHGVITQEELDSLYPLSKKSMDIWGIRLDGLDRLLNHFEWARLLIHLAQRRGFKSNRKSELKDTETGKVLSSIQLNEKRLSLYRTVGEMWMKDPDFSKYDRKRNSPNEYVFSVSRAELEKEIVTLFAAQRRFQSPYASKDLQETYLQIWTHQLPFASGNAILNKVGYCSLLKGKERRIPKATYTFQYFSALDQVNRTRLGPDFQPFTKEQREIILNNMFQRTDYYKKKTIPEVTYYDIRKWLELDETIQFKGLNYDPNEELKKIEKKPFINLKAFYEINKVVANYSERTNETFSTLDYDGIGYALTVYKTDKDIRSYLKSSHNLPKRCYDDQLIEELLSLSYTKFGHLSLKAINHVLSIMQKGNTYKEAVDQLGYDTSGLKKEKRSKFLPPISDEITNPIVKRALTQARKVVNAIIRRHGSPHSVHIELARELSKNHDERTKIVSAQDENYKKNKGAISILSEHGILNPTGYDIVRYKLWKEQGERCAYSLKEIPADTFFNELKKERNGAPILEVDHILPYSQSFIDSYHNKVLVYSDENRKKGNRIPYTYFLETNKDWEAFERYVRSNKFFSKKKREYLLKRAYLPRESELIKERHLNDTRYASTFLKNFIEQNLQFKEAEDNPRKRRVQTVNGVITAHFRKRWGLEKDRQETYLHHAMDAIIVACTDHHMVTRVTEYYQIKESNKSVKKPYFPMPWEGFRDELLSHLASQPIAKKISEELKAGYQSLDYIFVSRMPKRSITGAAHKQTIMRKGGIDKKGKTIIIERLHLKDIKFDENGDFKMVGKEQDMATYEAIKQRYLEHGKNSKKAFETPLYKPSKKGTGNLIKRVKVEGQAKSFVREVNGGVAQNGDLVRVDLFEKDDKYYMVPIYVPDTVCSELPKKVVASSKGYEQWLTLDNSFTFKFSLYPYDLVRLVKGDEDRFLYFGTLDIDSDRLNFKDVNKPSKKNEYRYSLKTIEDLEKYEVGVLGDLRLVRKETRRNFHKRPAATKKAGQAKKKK", "description": "as §1"}}, "data": [{"binder": "B1", "values": [{"measurement": "activity", "setting": "APG03724-nAPG07433.1", "value": 4.1, "unit": "%"}, {"measurement": "activity", "setting": "APG08449-nAPG07433.1", "value": 5.3, "unit": "%"}, {"measurement": "activity", "setting": "APG09949-nAPG07433.1", "value": 3.4, "unit": "%"}, {"measurement": "activity", "setting": "APG06333-nAPG07433.1", "value": 4.2, "unit": "%"}, {"measurement": "activity", "setting": "APG09102-nAPG07433.1", "value": 6.2, "unit": "%"}, {"measurement": "activity", "setting": "APG05723-nAPG07433.1", "value": 1.9, "unit": "%"}, {"measurement": "activity", "setting": "APG08196-nAPG07433.1", "value": 3.3, "unit": "%"}, {"measurement": "activity", "setting": "APG05174-nAPG07433.1", "value": 3.2, "unit": "%"}, {"measurement": "activity", "setting": "APG06489-nAPG07433.1", "value": 2.5, "unit": "%"}]}]}
